From US20250302761A1 (INSTITUT NATIONAL DE LA SANT ET DE LA RECHERCHE M DICALE, published 2025)

Biological target: FKBP2-RFP-CD63
Assay: cell-based or functional assay

B1: FRB-NanoLuciferase-HA (other)
chain: ILWHEMWHEGLEEASRLYFGERNVKGMFEVLEPLHAMMERGPQTLKETSFNQAYGRDLMEAQEWCRKYMKSGNVKDLLQAWDLYYHVFRRISK
- EV NLuc specific activity, normalized on the 'No Drug' condition: 3.5 fold
- NLuc activity in Fraction 7 of the floatation assay, 'Drug' against 'No Drug': 4 fold
